Test results from PMC2647316 (Nucleic Acids Research, 2008).

Biological target: T1, GkDnaC R117A (Geobacillus kaustophilus HTA426, UniProt Q5KU75 1-454, R117A)
T1 sequence: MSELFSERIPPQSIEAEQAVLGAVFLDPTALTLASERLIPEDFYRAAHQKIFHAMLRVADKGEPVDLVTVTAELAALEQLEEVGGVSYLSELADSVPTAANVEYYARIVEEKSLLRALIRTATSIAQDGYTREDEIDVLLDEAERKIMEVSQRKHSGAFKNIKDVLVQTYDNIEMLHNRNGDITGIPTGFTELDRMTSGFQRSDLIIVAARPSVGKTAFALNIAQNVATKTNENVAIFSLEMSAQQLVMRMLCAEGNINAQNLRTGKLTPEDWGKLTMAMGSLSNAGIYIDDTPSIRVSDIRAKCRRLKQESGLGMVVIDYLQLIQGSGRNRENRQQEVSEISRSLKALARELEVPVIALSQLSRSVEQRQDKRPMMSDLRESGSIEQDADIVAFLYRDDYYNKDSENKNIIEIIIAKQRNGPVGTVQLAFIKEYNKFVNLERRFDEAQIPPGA
Experiment: SPR

## TTTTTTTTTTTTTTTTTTTTTTTTTTTTTT (ssDNA) [5'Bio-(dT)30]
  Kd: 1470 nM
